This is an account of results in patent US20170240613A1 (REGENTS OF THE UNIVERSITY OF COLORADO A BODY CORPORATE, published 2017).

Assay [1] deals with T1, human CD112-Fc fusion protein (human; mouse, UniProt Q92692 32-360).
T1 construct: extracellular domain; Used soluble for cell staining, coated on beads, coated on plates and amine-coupled to a CM5 chip; the Biacore text only says CD112; also called CD112-Ig; CD112 fusion protein; not shown: constant region (Fc) of mouse IgG2a
T1 sequence (looked up): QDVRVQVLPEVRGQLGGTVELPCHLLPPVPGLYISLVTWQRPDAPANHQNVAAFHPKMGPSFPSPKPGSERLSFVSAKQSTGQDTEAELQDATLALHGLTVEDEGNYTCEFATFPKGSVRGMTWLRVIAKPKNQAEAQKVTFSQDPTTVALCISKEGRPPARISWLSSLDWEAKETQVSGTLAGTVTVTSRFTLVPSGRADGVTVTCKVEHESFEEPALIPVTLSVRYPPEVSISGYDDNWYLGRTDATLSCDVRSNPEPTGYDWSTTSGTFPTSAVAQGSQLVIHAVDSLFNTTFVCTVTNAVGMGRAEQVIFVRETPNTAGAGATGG
Kind of assay: Biacore 3000, concentration series of CD112R protein over immobilized CD112. The text has this:
(§1) FIG. 3D depicts a graph showing BIAcore3000 analysis of CD112R binding to CD112. A series of concentrations of CD112R protein was used to measure the binding kinetics with immobilized CD112.
(§2) All bio sensor experiments were run on a Biacore 3000 instrument (GE Healthcare, Piscataway, N.J., USA). PBS with 0.005% P20 buffer (Gibco) was used as the running buffer for both the immobilization and kinetics experiments. Amine-coupling chemistry was used to immobilize protein FLAG, CD112 and CD155 to a CM5 sensor chip surface at […]. Kinetic experiments were carried out for three different ligands using three different concentration series: 4, 12, 36, 111, 333 nM of CD112R; 9000, 3000, 1000, 333, 111 nM TGIT; 9000, 3000, 1000, 333, 111 nM PVR L3. All samples were diluted in PBS buffer and were injected for 3 minutes across the surface at a flowrate of 20 flL/min and the dissociation of analyte from the surface-bound ligands was monitored for 5 minutes. All analyte concentrations were performed in duplicate and an unmodified reference flow cell was used to correct for instrument drift and/or noise. Buffer blanks were used to double-reference the obtained kinetic data. Raw sensogram data was processed and fit using the Scrubber software package (Version 2.0b, BioLogic Software, Campbell, Australia; http_www_biologic_com_au).

In assay [2] the target is T1, human CD112-Fc fusion protein. Kind of assay: SPR, Biacore 3000, CD112 amine-coupled to CM5 chip, CD112R as analyte at 4-333 nM.
Source text: as §1, §2
(In SPR one partner is held on a chip, and binding of the other changes the refractive index at the surface.)

Assay [3] has the same target. Kind of assay: competition on coated CD112 (beads, flow cytometry): staining by CD112R protein in the presence of rising CD226 protein. The text has this: FIG. 3F depicts graphs showing the competitive binding assay for CD112 among CD112R, CD226, and TIGIT. Coated CD112 was stained by CD112R protein in the presence of different concentration of TIGIT or CD226 protein; on the other hand, coated CD112 were stained by CD226 protein, in the presence of different concentration of CD112R protein.
CD112 is known to interact with both CD226 and TIGIT, though the latter interaction is relatively weak (Bottino et al., 2003; Stanietsky et al., 2009; Yu et al., 2009). It was investigated whether these two counter receptors compete with CD112R for CD112 interaction. CD112 protein was coated on beads, and stained with CD112R protein in the presence of different concentration of TIGIT or CD226 protein. Inclusion of TIGIT had little effect on disrupting this interaction, while CD226 was a good inhibitor of the CD112-CD112R binding (FIG. 3F). […] Because of the weak interaction between CD112 and TIGIT, as well as limited coated CD112 protein on beads, binding between these two molecules by flow cytometry was not observed. […] This conclusion was further supported by the studies that a CD112 mAb, clone TX31, blocked the binding of CD112 to both CD112R and CD226 (FIG. 4B and FIG. 8).
(In flow cytometry, cells or beads pass a laser one at a time.)

Assay [4] deals with T2, mouse CD112 on RMA-S cells (RMA-S/mCD112) (mouse, UniProt P32507 32-530).
T2 construct: whole, on cells; also called mCD112 transfectants; RMA-S/mCD112 cells
T2 sequence (looked up): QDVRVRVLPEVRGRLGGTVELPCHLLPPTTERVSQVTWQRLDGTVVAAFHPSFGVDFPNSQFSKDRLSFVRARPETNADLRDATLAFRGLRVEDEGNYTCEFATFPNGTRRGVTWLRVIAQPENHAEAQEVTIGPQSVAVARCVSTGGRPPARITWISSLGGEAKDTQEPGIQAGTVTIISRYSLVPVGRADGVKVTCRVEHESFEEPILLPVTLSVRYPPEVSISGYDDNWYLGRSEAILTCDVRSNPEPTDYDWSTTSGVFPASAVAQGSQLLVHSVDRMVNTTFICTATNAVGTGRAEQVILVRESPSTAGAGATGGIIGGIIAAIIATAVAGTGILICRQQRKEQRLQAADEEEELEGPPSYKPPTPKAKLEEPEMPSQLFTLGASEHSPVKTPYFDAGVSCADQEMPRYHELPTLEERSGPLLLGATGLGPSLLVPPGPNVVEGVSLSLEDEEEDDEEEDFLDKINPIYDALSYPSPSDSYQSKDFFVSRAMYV
Kind of assay: flow cytometry, RMA-S/mCD112 cells against control RMA-S cells. The text has this: FIG. 3E depicts graphs showing that the CD112R/CD112 interaction was conserved in mice. RMA-S/mCD112 cells (blue), a mouse lymphoma cell line stably expressing mCD112, or control RMA-S cells (red) were stained with mouse CD112R-Fc, mouse CD226-Fc or mouse TIGIT-Fc respectively.

Assay [5] deals with T3, human CD112R (form used in Example 18 not stated) (human), Q6DKI7.
T3 chain: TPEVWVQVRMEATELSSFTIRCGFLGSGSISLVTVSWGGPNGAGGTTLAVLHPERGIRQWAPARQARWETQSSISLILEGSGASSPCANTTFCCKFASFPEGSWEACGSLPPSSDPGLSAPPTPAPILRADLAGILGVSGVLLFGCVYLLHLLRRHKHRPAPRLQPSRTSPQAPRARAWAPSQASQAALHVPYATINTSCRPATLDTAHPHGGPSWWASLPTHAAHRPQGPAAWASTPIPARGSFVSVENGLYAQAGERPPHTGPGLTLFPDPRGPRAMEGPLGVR
Kind of assay: flow cytometry, CD112-Fc staining of human CD112R; panel '+2H6'.

Assay [6] concerns the target T3, human CD112R (form used in Example 18 …). Kind of assay: flow cytometry, CD112-Fc staining of human CD112R; panel '+4-4'.
Assay [7] shares this target. Kind of assay: flow cytometry, CD112-Fc staining of human CD112R; panel 'None'.
Assay [8] has the same target. Kind of assay: flow cytometry, CD112-Fc staining of human CD112R; panel '+4-5'.

B1: human CD112R-mFc protein (extracellular domain of human CD112R fused to mouse IgG2a constant region) (Fc fusion)
chain: TPEVWVQVRMEATELSSFTIRCGFLGSGSISLVTVSWGGPNGAGGTTLAVLHPERGIRQWAPARQARWETQSSISLILEGSGASSPCANTTFCCKFASFPEGSWEACGSLPPSSDPGLSARSPRGPTIKPCPPCKCPAPNLLGGPSVFIFPPKIKDVLMISLSPIVTCVVVDVSEDDPDVQISWFVNNVEVHTAQTQTHREDYNSTLRVVSALPIQHQDWMSGKEFKCKVNNKDLPAPIERTISKPKGSVRAPQVYVLPPPEEEMTKKQVTLTCMVTDFMPEDIYVEWTNNGKTELNYKNTEPVLDSDGSYFMYSKLRVEKKNWVERNSYSCSVVHEGLHNHHTTKSFSRTPGK
notes: also called CD112R fusion protein; CD112R protein
For B1, the dissociation constant (Kd) – broadly, a measure of binding affinity in units of concentration – in assay [1] amounted to 88.4 nM; in assay [2] it was 88 nM.

B2: human CD226-Fc fusion protein (Fc fusion, UniProt Q15762 19-254, looked up)
chain: EEVLWHTSVPFAENMSLECVYPSMGILTQVEWFKIGTQQDSIAIFSPTHGMVIRKPYAERVYFLNSTMASNNMTLFFRNASEDDVGYYSCSLYTYPQGTWQKVIQVVQSDSFEAAVPSNSHIVSEPGKNVTLTCQPQMTWPVQAVRWEKIQPRQIDLLTYCNLVHGRNFTSKFPRQIVSNCSHGRWSVIVIPDVTVSDSGLYRCYLQASAGENETFVMRLTVAEGKTDNQYTLFVA
notes: extracellular domain; also called CD226 protein; not shown: constant region (Fc) of mouse IgG2a
As for B2, in assay [3], the binding result is recorded as “binds”.

B3: mouse TIGIT-Fc fusion protein (Fc fusion, UniProt P86176 29-148, looked up)
chain: TIDTKRNISAEEGGSVILQCHFSSDTAEVTQVDWKQQDQLLAIYSVDLGWHVASVFSDRVVPGPSLGLTFQSLTMNDTGEYFCTYHTYPGGIYKGRIFLKVQESSDDRNGLAQFQTAPLG
notes: extracellular domain; also called TIGIT protein; not shown: Fc
On to B3, for which the binding result in assay [4] is on record as “no binding”.

B4: human CD112-Fc fusion protein, Q92692 32-360 (Fc fusion, UniProt Q92692 32-360, looked up, not shown: a dimerising Fc or GST)
chain: T1 sequence (looked up)
B4: the 1 subset (share of events in the gate drawn over the histogram) in assay [5] came to 4.26; in assay [6] it was 13.8; in assay [7] it was 11.2; in assay [8], 12.8.
